One series has as its system HA-tagged LC8. In words: co-immunoprecipitation of LC8 with full-length FLAG-LCA5 in HEK293 cells. It counts as cell-based, human. The conditions noted are these: for co-immunoprecipitation of LC8: HEK-293, FLAG-LCA5 and HA-LC8 co-expressed 48 h, anti-LCA5 and anti-FLAG antibodies. Here is the method: HEK-293 cells were transfected with FLAG-LCA5-pcDNA3.1 + and HA-LC8-pcDNA3.1 + constructs and incubated for 48 h. After 48 h, cells were washed with ice-cold DPBS (Lonza) and lysed on ice with lysis buffer (50 mM TRIS 2 mM EDTA 100 mM NaCl 10% Glycerol and 0.5% IGEPAL supplemented with protease (Sigma Aldrich) and phosphatase (Sigma-Aldrich) inhibitors). Total protein concentration was determined by the BCA kit (Sigma Aldrich). For each co-immunoprecipitation reaction 1 mg total protein was used and 20 μg of anti-lebercilin (19,333-1-AP Proteintech), anti-LC8 (16,811–1-AP Proteintech), polyclonal antibody, anti-FLAG (8146 Cell Signaling Technologies), anti-MYC (2276 Cell Signaling Technologies) or anti-HA (sc-7392 Santa Cruz Biotechnology) monoclonal antibody was added respectively and incubated for 4 h at 4 °C. The immunocomplexes were incubated with protein A/G sepharose beads (Cell Signaling Technologies) overnight. The immunocomplex-containing beads were washed three times in lysis buffer, then two times in detergent-free lysis buffer, proteins were eluted by boiling in 2 × Laemmli buffer. The samples were analyzed by 10% tricine-SDS PAGE. The SDS gel was cut half above the 35 kDa marker band and subsequently blotted onto two separate Amersham Hybond PVDF membrane (GE Healthcare). The LCA5 containing upper half was blotted for 180 min, the LC8 containing lower part was blotted for 80 min. The membranes were blocked in 5% BSA and the LCA5 and LC8 containing parts are incubated with mouse anti-FLAG 1:1000 (8146 Cell Signaling Technologies), and rabbit anti-LC8 1:1000 (ab51603 Abcam) primary antibodies respectively overnight at 4 °C. After washing with TBS-T, membranes were incubated with secondary antibodies (ECL PLEX Goat-Anti-Rabbit IgG CY5 1:1500 and CL PLEX Goat-Anti-Mouse IgG CY3 1:1500, Ge Healthcare) for 1 h at room temperature, then scanned in a Typhoon scanner (GE Healthcare).

The target in series [1] is T1, LC8 (Homo sapiens, UniProt Q96FJ2).
T1 construct: 6xHis (N); made in house; host or cells: E. coli BL21 (DE3) Rosetta
Nature of the series: SDS-PAGE densitometric analysis of gel filtration fractions (sLCA5:LC8 molar ratio). It counts as binding. The conditions noted are these: SDS-PAGE densitometry; result in words. Here is the method:
(§1) For analytical gel filtration a Superose 6 Increase 10/300 (Cytiva) was used with an effective resolution between 5–5000 kDa range and a void volume above 5000 kDa. The column was equilibrated in DPBS supplemented with 200 μM TCEP. The calibration curve was fitted on the chromatogram of gel filtration standard mix (BioRad) with the addition of Dextran Blue to determine the void volume. 100 μl of LCA5 purified protein or LCA5-LC8 complex was injected at the concentration of 30 μM for LCA5 and 150 μM for LC8, with a flow rate of 500 μl/min immediately or after 60 min of incubation at 37 °C. For densitometric analysis, fractions were collected and 200 μl of samples were precipitated in 1.8 ml 96% ethanol at − 80 °C for 2 h. The samples were centrifugated for 30 min at 14,000 g, and dissolved in 15 μl of SDS sample buffer. 10 μl of each sample was run on Tricine-SDS gel. The calibration of the densitometry was performed on samples of known molar ratio of sLCA5 construct and LC8 (see the original gel used for calibration on Suplementary Fig. S16). Data evaluation was performed by using Origin 8 software and Fiji ImageJ software.

In series [2] the target is T1, LC8. In words: isothermal titration calorimetry, sLCA5 fragments titrated with LC8. Conditions: ITC, PBS pH 7.4, 1 mM TCEP, 37 °C; MBP-fused sLCA5 titrated with LC8. It counts as binding. Here is the method:
LC8 and MBP-fused LCA5 constructs were prepared in PBS supplemented with 1 mM TCEP. Before measurement, protein samples were dialyzed overnight in PBS pH 7.4 (Orange Scientific, OrDial D14 membrane). Peptides were diluted from stock with the buffer used for dialysis. The concentration of samples was determined based on absorbance at 280 nm in the case of proteins, and 205 nm for the peptide. Experiments were performed using MicroCal PEAQ-ITC (Malvern Panalytical), LCA5 peptides were measured at 25 °C, proteins were analyzed at 37 °C. Lebercilin peptide was injected into the cell 18 times 2 μl volumes, with 5 min timing between injections. In case of the protein, LCA5 was placed in the sample cell, and LC8 was injected during 37 injections, 1 μl each. The results were evaluated using MicroCal PEAQ-ITC Analysis Software.
For orientation: Isothermal titration calorimetry measures the heat released or taken up as one component is titrated into another.

The subject of the next series is GST-fused LC8. Nature of the series: GST pull-down of LC8 and sLCA5. Format: binding. Conditions: GST-LC8 bait, MBP-, 6x-His-fused sLCA5 prey, PBS, 1 mM DTT, room temperature; result in words. Here is the method:
For the pull-down experiments, GST-fused LC8 was used as bait, and MBP-, 6x-His-fused LCA5 variants as prey. For controls, GST and MBP were used. Proteins were expressed in 100 ml cultures of E. coli BL21 (DE3) Rosetta cells as described above. Cells were harvested, resuspended in 5 ml PBS supplemented with 1 mg/ml lysozyme and 1 mM DTT, sonicated and clarified by centrifugation. 20 μl of Glutathione Sepharose 4B (Macherey–Nagel) (75%) resin was used for each experiment. Baits were incubated with the resin for 1 h at room temperature, then washed with PBS supplemented with 1 mM DTT. Prey proteins were added and incubated for one hour. The beads were washed and eluted by boiling in a 2 × SDS sample buffer and analyzed in tricine SDS page according to the protocol of Schagger et al[43].

Series [3] is described as follows: analytical gel filtration. It counts as physicochemical. Conditions: with LC8, 60 min at 37 °C vs non-incubated complex. Here is the method: as §1
A general note: Size exclusion chromatography separates by hydrodynamic size, large species first.

Series [4] in a line: negative staining transmission electron microscopy of sLCA5-LC8 complexes. Format: physicochemical. Here is the method: For TEM negative staining experiments, a JEOL JEM-1011 (JEOL Ltd., Tokyo, Japan) electron microscope was used. The purified LCA5-LC8 complexes or LC8 or LCA5 forms alone were put together by using LCA5-WT or the single or double mutants at 30 μM and LC8 at 150 μM concentration in a buffer of 20 mM Tris 70 mM NaCl, pH 7.4, and incubated at 37 °C for 1 h. The complexes were diluted to a final 0.2 mg/ml concentration in the buffer and applied to 300 mesh formvar/carbon-coated copper grids (SPI Inc., USA). After 2 min of incubation the surplus was removed by filter paper and 1% uranyl acetate was applied for 1 min as negative staining. Images were taken around the middle of the grid at 5000, 50,000, 150,000 and 300,000-fold magnification. The collected data was analyzed by Fiji ImageJ software, and the statistical analysis was carried out in Origin 8 software.

Changes are numbered by the printed parent chain.

T1 sequence (Q96FJ2 whole entry): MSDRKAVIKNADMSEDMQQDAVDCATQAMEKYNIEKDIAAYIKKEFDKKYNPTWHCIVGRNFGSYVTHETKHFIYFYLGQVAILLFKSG

B1: FLAG-LCA5: full-length LCA5 with N-terminal FLAG-tag (protein)
chain: MGERAGSPGTDQERKAGKHHYSYLSDFETPQSSGRSSLVSSSPASVRRKNPKRQTSDGQVHHQAPRKPSPKGLPNRKGVRVGFRSQSLNREPLRKDTDLVTKRILSARLLKINELQNEVSELQVKLAELLKENKSLKRLQYRQEKALNKFEDAENEISQLIFRHNNEITALKERLRKSQEKERATEKRVKDTESELFRTKFSLQKLKEISEARHLPERDDLAKKLVSAELKLDDTERRIKELSKNLELSTNSFQRQLLAERKRAYEAHDENKVLQKEVQRLYHKLKEKERELDIKNIYSNRLPKSSPNKEKELALRKNAACQSDFADLCTKGVQTMEDFKPEEYPLTPETIMCYENKWEEPGHLTLDLQSQKQDRHGEAGILNPIMEREEKFVTDEELHVVKQEVEKLEDEWEREELDKKQKEKASLLEREEKPEWETGRYQLGMYPIQNMDKLQGEEEERLKREMLLAKLNEIDRELQDSRNLKYPVLPLLPDFESKLHSPERSPKTYRFSESSERLFNGHHLQDISFSTPKGEGQNSGNVRSPASPNEFAFGSYVPSFAKTSERSNPFSQKSSFLDFQRNSMEKLSKDGVDLITRKEKKANLMEQLFGASGSSTISSKSSDPNSVASSKGDIDPLNFLPGNKGSRDQEHDEDEGFFLSEGRSFNPNRHRLKHADDKPAVKAADSVEDEIEEVALR
modifications: left off: FLAG, N-terminal, kept
notes: full-length LCA5 with N-terminal FLAG-tag
In the case of B1, the “co-immunoprecipitation of LC8” value is “interaction was detected” with HA-tagged LC8 and “LC8 was co-precipitated” in the series on HA-tagged LC8 (listed as FLAG-tagged LCA5). Further, the co-immunoprecipitation interaction result in the series on HA-tagged LC8 (HEK-293, FLAG-LCA5 and HA-LC8 co-expressed, precipitation with anti-HA and anti-LC8 antibodies) was “no”.

B2: sLCA5-ΔVQT: sLCA5 with the three core residues VQT exchanged for three alanines (protein)
chain: DTDLVTKRILSARLLKINELQNEVSELQVKLAELLKENKSLKRLQYRQEKALNKFEDAENEISQLIFRHNNEITALKERLRKSQEKERATEKRVKDTESELFRTKFSLQKLKEISEARHLPERDDLAKKLVSAELKLDDTERRIKELSKNLELSTNSFQRQLLAERKRAYEAHDENKVLQKEVQRLYHKLKEKERELDIKNIYSNRLPKSSPNKEKELALRKNAACQSDFADLCTKGAAAMEDFKPEEYPLTPETIMCYENKWEEPGHLTLDLQSQKQDRHGEAGILNPIMEREEKFVTDEELHVVKQEVEKLEDEWEREELDKKQKEKASLLER
modifications: left off: MBP, N-terminal, kept | His6, C-terminal, kept
notes: sLCA5 with the three core residues VQT exchanged for three alanines
As for B2, the “LC8 content of fraction” value with LC8 [1] is listed as “only a trace amount of LC8”. Also, the “− TΔS” value in the series with LC8 [2] came to 4.32 kcal/mol. Moreover, in the series on GST-fused LC8, the “interaction with LC8 (GST pull-down)” value is reported as “did not abolish the interaction with LC8”.

B3: sLCA5-ΔCQS: sLCA5 with alanine mutations in the CQS motif core; VQT motif intact (protein)
chain: B2 chain with C226A, Q227A, S228A, A238V, A239Q, A240T
modifications: left off: MBP, N-terminal, kept | His6, C-terminal, kept
notes: sLCA5 with alanine mutations in the CQS motif core; VQT motif intact
In the case of B3, the “− TΔS” value in the series with LC8 [2] turned out to be 0.07 kcal/mol. In addition, the “void fraction increment on incubation” value in series [3] was found to be 35%. Further, the “interaction with LC8 (GST pull-down)” value with GST-fused LC8 is “maintained the interaction with LC8”. In series [4] (30 μM sLCA5 + 150 μM LC8, 37 °C 1 h, 20 mM Tris 70 mM NaCl pH 7.4), the “measured diameter median of spherical complexes” value is reported as 32 nm. For the same molecule, the “amount of detectable oligomeric particles” value in series [4] (TEM, result in words) was “notable amount of particles around the edges of the grids”.

The record behind these values is article PMC9481538, “The interaction between LC8 and LCA5 reveals a novel oligomerization function of LC8 in the ciliary-centrosome system” (Scientific Reports, 2022).
